Measurements reported in patent publication US20100093623A1, “COMPOSITIONS AND METHODS FOR […]-LIKE RECEPTOR ACTIVITY AND USES THEREOF” (Burnham Institute for Medical Research, priority 2008, published 2010).

Molecular target: T1, (His)6-NLRP1 (NLR family, pyrin domain-containing 1), purified recombinant full-length protein from Sf21 cells (human), Q9C000
T1 chain: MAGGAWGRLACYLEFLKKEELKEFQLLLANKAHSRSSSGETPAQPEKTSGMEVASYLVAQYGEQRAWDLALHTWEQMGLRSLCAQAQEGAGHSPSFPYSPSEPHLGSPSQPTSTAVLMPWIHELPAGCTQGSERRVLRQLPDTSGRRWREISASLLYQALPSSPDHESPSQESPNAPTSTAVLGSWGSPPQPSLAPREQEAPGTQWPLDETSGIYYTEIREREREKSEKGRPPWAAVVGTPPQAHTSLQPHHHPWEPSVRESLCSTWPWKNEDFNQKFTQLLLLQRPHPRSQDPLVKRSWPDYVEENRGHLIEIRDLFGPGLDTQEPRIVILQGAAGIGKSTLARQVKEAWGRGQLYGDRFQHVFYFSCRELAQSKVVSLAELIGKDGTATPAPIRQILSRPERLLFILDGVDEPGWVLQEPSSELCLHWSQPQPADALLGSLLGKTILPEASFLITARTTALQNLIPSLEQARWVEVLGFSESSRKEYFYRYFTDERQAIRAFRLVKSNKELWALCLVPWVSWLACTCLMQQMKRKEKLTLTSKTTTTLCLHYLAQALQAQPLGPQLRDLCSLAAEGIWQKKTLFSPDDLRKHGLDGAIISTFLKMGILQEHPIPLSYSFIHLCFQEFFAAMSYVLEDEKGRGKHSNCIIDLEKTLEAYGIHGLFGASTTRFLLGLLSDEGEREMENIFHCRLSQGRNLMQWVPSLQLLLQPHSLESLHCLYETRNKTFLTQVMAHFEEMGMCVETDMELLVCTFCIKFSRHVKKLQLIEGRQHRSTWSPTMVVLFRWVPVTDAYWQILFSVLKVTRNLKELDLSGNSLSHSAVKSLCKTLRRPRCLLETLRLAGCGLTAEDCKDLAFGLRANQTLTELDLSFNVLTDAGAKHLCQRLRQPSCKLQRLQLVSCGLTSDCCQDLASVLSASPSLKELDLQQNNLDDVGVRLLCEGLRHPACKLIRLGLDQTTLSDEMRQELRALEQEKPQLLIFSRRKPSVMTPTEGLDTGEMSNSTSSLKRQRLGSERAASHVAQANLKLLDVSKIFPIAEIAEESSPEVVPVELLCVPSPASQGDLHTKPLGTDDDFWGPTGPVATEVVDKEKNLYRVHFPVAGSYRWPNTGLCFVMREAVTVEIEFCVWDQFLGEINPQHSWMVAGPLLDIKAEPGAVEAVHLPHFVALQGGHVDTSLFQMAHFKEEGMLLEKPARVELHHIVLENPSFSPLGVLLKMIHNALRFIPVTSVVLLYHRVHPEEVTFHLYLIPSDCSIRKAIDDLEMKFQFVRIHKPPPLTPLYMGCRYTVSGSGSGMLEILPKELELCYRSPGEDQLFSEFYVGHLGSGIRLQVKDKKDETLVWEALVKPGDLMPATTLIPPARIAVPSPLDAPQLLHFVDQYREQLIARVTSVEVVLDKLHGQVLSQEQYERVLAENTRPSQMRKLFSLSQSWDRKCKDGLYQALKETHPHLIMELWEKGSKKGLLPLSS
Experiment: cell-based or functional assay

Binder: PLQTPAAPGAAAGPALSPVP (modifications not checked) [Bcl-2 Loop peptide 71-90 (synthetic 20'mer)]
- IC50 (concentration to inhibit NLRP1-induced Caspase-1 activity by 50%): 9.92 nM
